{
  "source": "the nanobody polyreactivity screen of Harvey et al. (2022)",
  "data": [
    {"test": "yeast display, Sf9 membrane polyspecificity reagent, FACS + sequencing; frameworks hold sequencing errors", "method_in_brief": "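Nanobodies from a synthetic yeast display library (Saccharomyces cerevisiae BJ5465), induced 36–48 hours with galactose, were stained 1 hour at 4 °C with 10% biotinylated, detergent-solubilized Sf9 membrane reagent, enriched on streptavidin microbeads, then FACS-sorted. Anti-HA (expression) and streptavidin (reagent binding) fluorescence set low and high (top ~1%) gates. Polyreactivity labels come from the gate of origin. Genes were colony-PCR amplified, MiSeq 2 × 250 sequenced and filtered by CDR length.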", "values": [
      {"sequence": "QVQLVESGGGLVQAGGSLRLSCAASGSTSGRNVMGWYRQSPGKERELVAAISSRGGSTYYADSVKGRFTISRDNEKNTVYLQMNSLKPEDTAVYYCASRYGAYSGYDYWGQGTQVTVSS", "polyreactivity (PSR sort gate)": "high polyreactivity"},
      {"sequence": "QVQLVESGGGLVQEGGCLRLSCAASGSIFQGYAMGWYRQAPGKERELVAAITTDGDSTYYADSVKGRFTISRDNAKNTDYLEMNSLKPVDTAVYYCAADQDGRWEGSSEQGDSWGQGTQVTVSS", "polyreactivity (PSR sort gate)": "low polyreactivity"},
      {"sequence": "QFQLVESGGGLVQAGGSLRLSCAASGRIFYYNAMGWYRQAPGKERELVASITGSGGSTYYADSVKGRFTISRDNAKNTVYLQMNSLKPEDTAVYYCAKREYLYPYYYVAKYDYWGQGTQVTVSS", "polyreactivity (PSR sort gate)": "low polyreactivity"},
      {"sequence": "QVQLVESGGGLVQAGGSLRLSCAASGSIFPYNAMGWYRQAPGKERELVAAITSSGGRTYYADSVKGRFTISRDNAKNTVYLQMNSLKPEDTAVYYCAVEANYHTYWLYYWGQGTQVTVSS", "polyreactivity (PSR sort gate)": "high polyreactivity"},
      {"sequence": "QVQLVESGGGLVQAGGSLRLSCAASGSIFGAYAMGWYRQAPGPESELVATITLRDGSTYYADSVKGRFTISRDNAKNTVYLQLNSLKPEDTAVYYCATYYSAINYGSSTTILYDYWGQGTQVSVSS", "polyreactivity (PSR sort gate)": "low polyreactivity"},
      {"sequence": "QVQLVESGGGLVQAGGSLRLSCAASGRIFYRNAMGWYRQAPGQERELVAGITRGGSTNYADSVKGRFTLSRDNAKNTVFLHMNSLKPEDTAVYYCAASWPSSLTYYYWGQGSQVTVSS", "polyreactivity (PSR sort gate)": "low polyreactivity"},
      {"sequence": "QVQLVESGGGLVQAGGSLRLSCAASGIIFRGYAMGWDRQAPGKERELVARISITGGRTYYADSVKGRFTLSRDNAKNTVYLQMNSLKPEDTAVYYCAAGKYVRTVRYDYWGQGPQVTVSS", "polyreactivity (PSR sort gate)": "high polyreactivity"},
      {"sequence": "QVQLVESGGGLVQAGGSLRLSCAASGYTFWDNAMGWYRQAPGKERELVAAITIRSGRTYYADSVKGRFTISRDNAKNTVYLQMNSLKPEDTAVYYCNAQIYTYRTGRGYSRMDYWGKGTQVTVSS", "polyreactivity (PSR sort gate)": "high polyreactivity"},
      {"sequence": "QVQLVESGRGLVQAGGSLRLSCAASGLTFTPYAMGWYRQAPGKERELVAAITSGGRTYYADSVKGRFTSSRDNAKNTVYLQMNSLKPEDTAVYYCNADPEYSWWYYGLDYWGQGTQVTVSW", "polyreactivity (PSR sort gate)": "high polyreactivity"},
      {"sequence": "QVQLVESGGGLVQAGGSLRLSCAASGFIFYSNAMGWYIQAPGKEREVVAAISWDAGSTYYADSVKGRFTISRDNAKNTVYLQMISLKPEDSAVYYCATDRIVGRYIYNYWGQGTQVTVSS", "polyreactivity (PSR sort gate)": "high polyreactivity"},
      {"sequence": "QDQLVESGGGLVQAGGSLRLSCAASGRTFKINAMGWYRHAPGTERELVAAITYSGCTTYYADSVKGRFTISRDNAKNTVYLQMNSLKPEDTAVYYCATPSRKSGVGYPSYNYWGQGTQVTVSS", "polyreactivity (PSR sort gate)": "high polyreactivity"},
      {"sequence": "QVQLVESGGGLVQAGGSLRLSCAASGSTFGVYALGWYIPAPGKERELVDRITWSGGSTYYADSVKGRFTISRDNAKNTVYLQMNSLKPEDTAVFYCAARAWWDWYSPLWYYYWGQGTQVTVSS", "polyreactivity (PSR sort gate)": "high polyreactivity"},
      {"sequence": "QVQLVESGGGLVQAGGSLRLSCAASGIIQGVYALGWYRQAPGKERELVAAITSSGGSTYYADSVKGRFTISRDNAKNTVYLQMNSLKPEDTAVYYCAADFDTSVRLYGPTRYDYWGQGTQVTVSS", "polyreactivity (PSR sort gate)": "low polyreactivity"},
      {"sequence": "QVQLVESGGGLVQAGGSLRLSCAASGSTIRSYAMGWYRQAPGKERELVAVISSGDSTYYADSVKGRFTISRDNAKNTVYLQMNSLKPEDTAVYYCAADSYVLGRWYGYWGQGTQVTVSS", "polyreactivity (PSR sort gate)": "low polyreactivity"},
      {"sequence": "QVQQQESGGGRCSGRRTTPGLRGERHYFSLLHGLVSPGAGQEREFVAAIAVRSTYYADSAKGRFTINRDNAKYTVYLQMNSLKPEDTSVYSCAAYYSYYGGDYWGQGTQVTVSS", "polyreactivity (PSR sort gate)": "low polyreactivity"},
      {"sequence": "QVQLVESGGGLVQAGGSLRLSCAASGRIYLRYTMGWYRQAPGKERELVAAISARTTGTYYADSVKGRFTISRDNAKNTVYLQMKSLKPEDTAVYYCASKSKLSRDLYSWGQGTQVTVSS", "polyreactivity (PSR sort gate)": "low polyreactivity"},
      {"sequence": "QVQLEESGGGLVQAGGSLRLSCDASGRTFDTNAMGWYIQAPGKERELVAVITARGGNTSYADSVKGRFTISRDNSKNTVYLQMNSLKPEDTAVYYCAAPADDTVHYQNYYWGQGTQVTVSS", "polyreactivity (PSR sort gate)": "low polyreactivity"},
      {"sequence": "QVQLVESGGGLVQAGGSLRLSCAASGSTFRANAMGWYRQAPGKERELVAAIRGTGSTYYADSVKGRFTISRDNAKNTVYLQMNSLKPEDTAVYYCAARPGYLYSKYNYWGQGTQVTVSS", "polyreactivity (PSR sort gate)": "high polyreactivity"},
      {"sequence": "QVQLVESGGGLVQAGGSLRLSCAASGFIFRRYAMGWYRQAPGKERELVAAISGSGGRTYYADSVKGRFTISRDNAKNTVYLQMNSLKPEDTAVYYCAATYQYLKSGYYWGQGTQVTVSS", "polyreactivity (PSR sort gate)": "high polyreactivity"},
      {"sequence": "QVQLVESGVGLVQARGSLRLSCASSGSIFLVYAMGWYRQAPGKESELVAAISRSGRTYADSVKGRFTISRDNAKNTVYLQMNSLKPVDTAVYYCAAVTKRRFEGDYWGQGTQVTVSS", "polyreactivity (PSR sort gate)": "high polyreactivity"},
      {"sequence": "QVQLVESGGGLVQAGGSLRLSCAASGRTFYIYAMGWYRPAPGKERELVAAITYGGGRTFYADSVKGRFTISRDNAKNTVYLQMNSLKPEDTAVYYCAATVRGKRSTYDYWGQGTQVTVSS", "polyreactivity (PSR sort gate)": "high polyreactivity"},
      {"sequence": "QVQLVESGGGLVQAGGSLRISCAASGITFGRYTMGWYRQAPGKERELVAAITNGDITYYADSVKGRFTISRDNAKNTVYLQMNSLKPDDTAVYYCAADRYFWYDYWGQATQVTVSS", "polyreactivity (PSR sort gate)": "high polyreactivity"},
      {"sequence": "QVQLVESGGGLVQEGGSLRLSCAASGSIFWPNAMGWYRQAPGKERELVAAISWGTGSTYYADSVKGRFTISRDNAKNTVYLQINSLKPEDSAVYYCNAEYVVAFGYQYGEYDYWGQGTQVTVSS", "polyreactivity (PSR sort gate)": "low polyreactivity"},
      {"sequence": "QVQLVESGGGLVQAGGSLRLSCAASGSTYLYYAMGWYRQAPGKEREMVAAIWSDGSTRYADSVKGRFTISRDNAKNTVYLQMNSLKPEDTAVYYCAVYNYWGQGTQVTVSS", "polyreactivity (PSR sort gate)": "low polyreactivity"},
      {"sequence": "QVQLVESGGGLVQAGGSLRLSCAASGFTFVDYDMGWYRQAPGKERELVAAITYSGGSTSYADSVKGRFTISRDYAKNTVYLQMNSLKPEDTAVYYCNTEGFLSAVYAFGYWGQGTQVTVSS", "polyreactivity (PSR sort gate)": "low polyreactivity"},
      {"sequence": "QVQHVESGGGLVQAGGSLRLSCAASGRIFHFNAMGWYRQAPGKERELVAAISYRGGSTYYADSVKGRFTISRDNAKNTVYLQMNSLKPEDTAVYYCAAYTRHSARTYYYSYDYWGQGTQVTVSS", "polyreactivity (PSR sort gate)": "high polyreactivity"},
      {"sequence": "QVQLVESGGGLVQAGGSLRLSCAASGSTFVRNAMGWYRQAPGKERELVARISSSGGRTSYADSVKGRFTISRDNAKNTVYLQMNSLKPEDTAVYYCNARHYYIWWRSPTRTAMNYWGQGTQVTVSS", "polyreactivity (PSR sort gate)": "high polyreactivity"},
      {"sequence": "QVQLVESGGGLVQAGGSLRLSCAASGSTFVGNAMGWYRQAPGKERELVAAITGGGGSTYYADSVKGRFTISRDNAKNSVYLQMNSLKPEDTAVDYCARDRTDYYVWYVRYYYWGQGTQVTVSS", "polyreactivity (PSR sort gate)": "low polyreactivity"},
      {"sequence": "QVQLVESGGGLVQAGGSLRLSCAASGGTFFTNAMGWYRQAPGKERELVAAISRGGSSTYYADSVKGRFTISRDNAKNTVYLQMTSLKPEDTAVYYCNKAYHRRDSEFGYWGQGTQVTVSS", "polyreactivity (PSR sort gate)": "high polyreactivity"},
      {"sequence": "QVQLVESGGGLDQAGGSLRLSCAASGFTFRRYAMGWYSQAPGKEREFVAAITTRGSNTYYADSVKGRFTISRDNAKNTVYLQMNSLKPEDTAVYYCAASYYPPGHYDYWGQGTQVTVSS", "polyreactivity (PSR sort gate)": "high polyreactivity"},
      {"sequence": "QVQLVESGGGLVQAGGSLRLSCAHSGFTFTRNAMGWYRQSPGKETELVATISGSGGGTYYADSVKGRFTISRDNAKNTVYLQMNRLKPEDTAVYYCNARRLYSWQGTARYDFWGQGTQVTVSS", "polyreactivity (PSR sort gate)": "low polyreactivity"},
      {"sequence": "QVQLVESGGGLVQAGGSLRLSCAASGSIFTYNAMGWYRQAPGKERELVAAISWSGGSRYYADSVKGRFTISRDNAKNTVYLQMNSLKPVDTAVYYCAAALQYRLYFYPKYDYWGQGTQVTVSS", "polyreactivity (PSR sort gate)": "high polyreactivity"},
      {"sequence": "QVQLVESGGGLVQAGGSLRLSCAASGFILDFNAMGWYRQAPGKERELVAAISISGVSTYYADSVKGRFTISRDNAKNTVYLQMNSLKPEDTAVYYCAAAQDAAVYWRPGGYDYWGQGTQVTVSS", "polyreactivity (PSR sort gate)": "low polyreactivity"},
      {"sequence": "QVQLVESGGGLDQAGGSLRLSCAASGSTFRSYAMGWYRQAPGKERELVAVISSGDSTYYADSVKGRFTISRDNAKNTVYLQMNSLKQEDTAVYYCAADSYVLGRWYGYWGQGTQVTVSS", "polyreactivity (PSR sort gate)": "low polyreactivity"},
      {"sequence": "QVQLVESGGGLVQAGGSLRLSCASSGRTFLRYAMGWYRQAPGKERELVAAISSRGGTTHYADSVKGRFTISRDNAKNTVYLPMNSLKPEDTAVYYCAAKSFLPYLKFGYWGQGTQVTVSS", "polyreactivity (PSR sort gate)": "high polyreactivity"},
      {"sequence": "QVQLQVSGGGLVNAGGSLRLSCAASGNISPRDAMGWYLQAPGEERDLVASNAYSAITYYADGVTGRSTISRDNAKNTEYLQMNSLKPEDTEVYYCAVYQFTYPVFPAYWGQGTQVTVSS", "polyreactivity (PSR sort gate)": "low polyreactivity"},
      {"sequence": "QVQLVESGGGLVQAGGSLRLSCAASGRIFGYYAMGWSRQAPGKEREFVAAINWRGSSTTYADSVKGRFTISRDNAKNTVYLQMNSLKPEDTAVYYCKRVFGGGQWVYGYWGQGTQVTVSS", "polyreactivity (PSR sort gate)": "high polyreactivity"},
      {"sequence": "QVHLVESGGGLVQAGGSLRLSCPASGLTFYRYAMGLYRPAPGKERELVAAISSGGNTYYADSVKGRFTISRDNAKNTVYLQMNSMKPEDTAVYYCAAESYALRGHPGYYYWGQGSQVTVSS", "polyreactivity (PSR sort gate)": "high polyreactivity"},
      {"sequence": "QVQLVESGGGLVQAGGSLRLSCAASGFIISPYARGWYRQAPGKETELVAAISWSGVSTYYADSVKGRFTMSRDNAKNTVYLQMNSLNPEDTAVYYCAADPYCVKYRYGDDYWGQGTQVTVSS", "polyreactivity (PSR sort gate)": "high polyreactivity"},
      {"sequence": "QVQLVESGGGIVQAGGSLRLSCAASGRIFGYYVMGWSRQAPGKESELVAAINYDGGSTYYADSVKGRFTISRDNAKNTVYLQMISLKPVDTAVYYWAAAIGNSEYGWRYDYWGQGTQVTVSS", "polyreactivity (PSR sort gate)": "low polyreactivity"},
      {"sequence": "QVQLVESGGGLVQAGGSLRLSCAATGSTFFIYAMGWYRQAPGKERELVAAISGSGGTTYYADSVKGRFTISRDNAKNTVYLHMNSLKPEDTAVYYGAARTFSAFWRGGYDYWGQGTQVTVSS", "polyreactivity (PSR sort gate)": "low polyreactivity"}
    ]}
  ]
}
